Experimental data from patent publication US20210395344A1.

What was measured:
[1] = molecular target: SARS-CoV-2 Spike Glycoprotein S1 (subunit 1) (SARS-CoV-2) (UniProt P0DTC2); assay: epitope binning; competitor Acro mAb
[2] = molecular target: SARS-CoV-2 Spike Glycoprotein S1 (subunit 1) (SARS-CoV-2) (UniProt P0DTC2); assay: epitope binning; competitor 2-8
[3] = molecular target: SARS-CoV-2 Spike Glycoprotein S1 (subunit 1) (SARS-CoV-2) (UniProt P0DTC2); assay: epitope binning; competitor 1-35
[4] = molecular target: SARS-CoV-2 Spike Glycoprotein S1 (subunit 1) (SARS-CoV-2) (UniProt P0DTC2); assay: epitope binning; competitor Abcam CR3022
[5] = molecular target: SARS-CoV-2 Spike Glycoprotein S1 (subunit 1) (SARS-CoV-2) (UniProt P0DTC2); assay: epitope binning; competitor 1-32
[6] = molecular target: SARS-CoV-2 Spike Glycoprotein S1 (subunit 1) (SARS-CoV-2) (UniProt P0DTC2); assay: epitope binning; competitor 2-5
[7] = molecular target: SARS-CoV-2 Spike Glycoprotein S1 (subunit 1) (SARS-CoV-2) (UniProt P0DTC2); assay: epitope binning; competitor 1-16
[8] = molecular target: SARS-CoV-2 Spike Glycoprotein S1 (subunit 1) (SARS-CoV-2) (UniProt P0DTC2); assay: epitope binning; competitor 2-6
[9] = molecular target: SARS-CoV-2 Spike Glycoprotein S1 (subunit 1) (SARS-CoV-2) (UniProt P0DTC2); assay: epitope binning; competitor 2-11
[10] = molecular target: SARS-CoV-2 Spike Glycoprotein S1 (subunit 1) (SARS-CoV-2) (UniProt P0DTC2); assay: epitope binning; competitor 2-2

With Abcam CR3022 (antibody) the epitope binning score [1] was 2, the epitope binning score [2] was 0 and the epitope binning score [3] was 2. The epitope binning score [4] was 0, the epitope binning score [5] was 1 and the epitope binning score [6] was 0. For the same substance, the epitope binning score [7] was 2, the epitope binning score [8] was 2 and the epitope binning score [9] was 1. The epitope binning score [10] was 0.
